Source: the supplement of paper PMC9170038

Experiments:
MS2 coat protein [1] = experiment: apparent KD of MS2 coat protein, switch OFF state (with FMN for OFF switches, without FMN for ON switches); designed switch direction (-1 OFF switch, 1 ON switch): -1; higher = weaker reporter binding; details: FMN input: 0 or 200 uM; Eterna round: R93 (includes R88 designs)
Outline: (§1)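 Binding of SNAP-549-labelled MS2 coat protein was measured on designed RNA switches transcribed on-chip from Illumina sequencing clusters. The protein rose in twofold steps from 0.7 or 1.5 nM to 3 µM, with 0.8–1.5 h per step early on and 10–20 min per step later, in 100 mM Tris-HCl pH 7.5, 80 mM KCl, 4 mM MgCl2, without or with constant ligand. Each design's apparent KD is the median of fits to its normalised cluster binding curves.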

MS2 coat protein [2] = experiment: apparent KD of MS2 coat protein, switch ON state; designed switch direction (-1 OFF switch, 1 ON switch): -1; higher = weaker reporter binding; details: FMN input: 0 or 200 uM; Eterna round: R93 (includes R88 designs)
Outline: as §1

Sequence | apparent KD of MS2 coat protein (MS2 coat protein [1]) [nM] | apparent KD of MS2 coat protein (MS2 coat protein [2]) [nM]
AACAAGACAGGAUAUACAUGAGGAUCACCCAUGUCACAAUAAAGCAGCGCAACACAAAGUAGAAGGGUCAUGGA [Ruby 10] | 59.2 | 73.8
AAAGGACGAGGAUAUACAUGAGGAUCACCCAUGUAAAAAACGUAAUAAAAGAACUUAUGUAGAAGGCGUCCAAA [69%, Moding Meechl, 7] | 221 | 60.9
CUCUUGUAAGGAUAUGACUACAUAAAAAAAAAAAAAUGUAGUCAGAAGGUACAUGAGGAUCACCCAUGUACAAA [Brourd - Exclusion 4 - Sub 1] | 36 | 24.5
AAAAAACAUGAGGAUCACCCAUGUGAGGAUAUGCAGCGAAUAAAGAAAGAAGAAAGCAGCAGAAGGCACACCAA [Amethyst 78] | 44.1 | 26.4
AACAAGUCAGGAUAUGCGAACAGAAAAUAAGCUACACAAAAGCAGAAGGGACAUGAGGAUCACCCAUGUAAAUA [JR_Exc004_Sub501] | 29.8 | 49.9
AAAAAGGCAGGAUAUACAUGAGGAUCACCCAUGUGAAAAAAAAAAAAAAAAAAAAAGUGUAGAAGGGUCAAAAA [Exclusion 3 - Omei 2] | 51.4 | 51.7
AAUAGUGAAGGAUAUACAGGAGAAGUACGAUAAAAGAAAGAACAUGAGGAUCACCCAUGUAGAAGGUCAGAAGU [JR_Exc002_Sub1228] | 26.3 | 33.6
AAAAAGUCAGGAUAUGUCAAAGGUCACGAAAGUGACAAAGGACAGAAGGGACAUGAGGAUCACCCAUGUAGGAA [Fiskers Exclusion 4D1 65% - Late G segment 2] | 68.5 | 55.5
AGCUAGUGAGGAUAUACAAGAAUAUAAACAAAAAUGAAGGGACAUGAGGAUCACCCAUGUAGAAGGCACUAGCA [Diamond 72] | 221 | 55.2
GAAAACAUAGGAUAUACAUGAGGAUCACCCAUGUUAAAAUAAAGAAAGGGAGAAAUAAGUAGAAGGAUGAAAAA [Mat - Mod of Meechl] | 29.8 | 25.6
AACAUGUCAGGAUAUUUAAGAAAAGAAAAGAAAGAAAAGAAAAAGAAGGGACAUGAGGAUCACCCAUGUAAGAA [EteRNA is fun!] | 56.8 | 117
AAGGAGUGAGGAUAUCGGAAAGGACACGAAAGUGACAAAGACGAGAAGGCACAUGAGGAUCACCCAUGUAAAAA [milkweed 22] | 34.6 | 38.7
AAAAAACAUGAGGAUCACCCAUGUAAGGAUAUCCAAAAGAAAAGAAAAGAAAGAAGAAGGAGAAGGUACAAGAA [Sahure] | 32.4 | 41.1
CUCAUGUUAGGAUAUUUAUGAAAUGAAGUGAAAGAAAAGAAAAAGAAGGAACAUGAGGAUCACCCAUGUUAGAA [EteRNA is fun!] | 35.4 | 65.2
AAGAAGCGAGGAUAUACAAAAUAAAAGAAAAGAAAGAAAGAACAUGAGGAUCACCCAUGUAGAAGGUGCAAGAA [Sehetepkare Intef IV] | 43.5 | 46.7
AAGGGACAUGAGGAUCACCCAUGUGAGGAUAUGAUGCGAAUAAAGAAAGAAUAAAGCAUCAGAAGGCACACCAA [Mat - Exclusion 1 - Eli mod - D66] | 109 | 77.2
AAGAUGUCAGGAUAUACAUAAAUAAAAAAUUAUGUUAAAACACAUGAGGAUCACCCAUGUAGAAGGGACAUCAA [AJ 7] | 15.5 | 17.2
AAAAGGAUAGGAUAUACAUGAGGAUCACCCAUGUGAAAAAAUAAAAAAAAAAAAAAAAGUAGAAGGGUCAAAAA [LROPPY Exclusion 3 - v05_deltaG=3.6] | 53.7 | 40.2
AAAAAGGCAGGAUAUACGAGUCAAAGAAAAGACAAAAAGGGACAUGAGGAUCACCCAUGUAGAAGGGCCAAAAA [Fiskers exclusion D2 62% 4] | 193 | 51.6
AAGAACAGAGGAUAUACAUGAGGAUCACCCAUGUAAAAGAAAGAAAGGGAAAAGAAAAGUAGAAGGCUGAAGAA [Neferkare Heqawaset Amenemnisu] | 43.4 | 32.3
AAAAAGGGAGGAUAUACAGGAGGUAAGGAAAAAAAAAAAAAACAUGAGGAUCACCCAUGUAGAAGGCUUAAAAA [Ecls2-IV] | 22 | 30.3
CUUAAGUCAGGAUAUGUCAAAAGUCACAAAAGUGACAAAAGACAGAAGGGACAUGAGGAUCACCCAUGUAAAAA [Starry Exclusion 4.5 (starryjess round 1 mod)] | 139 | 78.3
AGGAAACAUGAGGAUCACCCAUGUUAGGAUAUGAACGAAAUAAAAUAAAAAUAAAAGUUCAGAAGGAACAAAAA [Mat - Exclusion 1 - Eli mod - D19] | 41.3 | 28.2

Sequence | apparent KD of MS2 coat protein (MS2 coat protein [1]) [nM] | apparent KD of MS2 coat protein (MS2 coat protein [2]) [nM]
GCUUGGCUAGGAUAUACAUGAGGAUCACCCAUGUGAGAGAAAAAAGUGAGAAAGAAAAGUAGAAGGAGUUGAGG [salish99-ex3-82] | 39.7 | 46.2
GCUCAGUAAGGAUAUUAAUGGCGCUGUUAUUCAGCACCAGCUGAGAAGGUACAUGAGGAUCACCCAUGUGGUGA [Berion] | 216 | 240
AGCUAGUCAGGAUAUGCAUGAAUGUCAAAAGACGUAAAGGGACAUGAGGAUCACCCAUGUAGAAGGGACUAGCA [JL In the Red 4?] | 277 | 120
CUGGUGUCAGGAUAUGCAUAGCAGUGACCAAAACCCGGUCAGCAGAAGGGACAUGAGGAUCACCCAUGUUAAAG [Alatele] | 57.7 | 22.3
GGAGGCCAAGGAUAUACAUGAGGAUCACCCAUGUGAGAGAAAAAAGUGAGAAAGAAAAGUAGAAGGUGGUUUCG [salish99-ex3-129] | 131 | 65.4
AAGAAGGUAGGAUAUACAAAAUAAAAGAAAAGAAAGAAAGAACAUGAGGAUCACCCAUGUAGAAGGACCAAGAA [Khutawyre Wegaf] | 17.7 | 34.3
AGUGAGUGAGGAUAUCCCUGAAGAAUAAAAGAAAUAACGAGGGAGAAGGCACAUGAGGAUCACCCAUGUACACA [May 64] | 24.8 | 30.6
AAAUAGACAGGAUAUGCAUGAAAAUUAAAAAAAAAAAAAAAACAUGAGGAUCACCCAUGUAGAAGGGUCAAAAA [Exclusion 2 - Omei 1] | 75.8 | 66.6
GAAAAGUGAGGAUAUGUCAAAAGUCACAAAAGUGACAAAAGACAGAAGGCACAUGAGGAUCACCCAUGUGAAAA [Mat - Exaclusion 4 - Eli mod - D55] | 43.8 | 24.2
AAGAAGUCAGGAUAUGUCUGUGCGAAAAAAAAAAAGUGCAGACAGAAGGGACAUGAGGAUCACCCAUGUGGAAA [Florian 65% 7] | 55.3 | 46.8
AAGAACAGAGGAUAUACAUGAGGAUCACCCAUGUAAAAGAAAGAAGGGAAAGAGAAAAGUAGAAGGCUGAAGAA [Titaru] | 31.7 | 25
CAUUCACAUGAGGAUCACCCAUGUAAGGAUAUCGAAAUAUAACUAAUCAAUAAACAAACGAGAAGGUACAAAAA [Exclusion 1 design 10] | 23.8 | 33.7
AGCUGGUUAGGAUAUACAUGAGGAUCACCCAUGUUAAAAAAAAAAAAAAGAUUAAAGUGUAGAAGGGAUUAGUA [Banishment 9 - Jieux - Exclusion 3] | 34.4 | 29.3
AACACACAUGAGGAUCACCCAUGUAAGGAUAUGCAAGCAAGAAGAAAGAACAGAAAAAGCAGAAGGUACACACA [Amethyst 74] | 24.3 | 28.4
AAAAGGUGAGGAUAUUCGAAAAUAAAAUAAAAUAAAAUAAAGAAGAAGGCACAUGAGGAUCACCCAUGUAAUAA [LROPPY Exclusion 4 - v02_deltaG=2.94 break up the As] | 24.9 | 25.9
GGAAAACAUGAGGAUCACCCAUGUGAGGAUAUGCAGGAUAUAGAAGGAAAAAAAAAAAGCAGAAGGUACGAAGG [salish99-ex1-17] | 36.3 | 22.3
AGGGAGUAAGGAUAUCGGAAAGGACACGAAAGUGACAAAGACGAGAAGGUACAUGAGGAUCACCCAUGUAAAAA [milkweed 24] | 21.6 | 32.2
AGGGUACAUGAGGAUCACCCAUGUUAGGAUAUAGAAAAGAAAAGAAAAGAAAGAAGAACUAGAAGGGACAAGAA [Unas] | 41.3 | 34.8
AUAGGCCUAGGAUAUACAUGAGGAUCACCCAUGUAAACCGAUAGAUCACGGUAAACGAGUAGAAGGAGGAAUAA [JR_Exc003_Sub208] | 30.3 | 26.5
AAAAAUCGAGGAUAUACAUGAGGAUCACCCAUGUCAGAAAAUGACUACACAAAAGAAAGUAGAAGGCGAUAAAA [Ex 3 May 18] | 30.3 | 29.4
GGCUGGCGAGGAUAUACAUGAGGAUCACCCAUGUGAGAGAAAAAAGUGAGAAAGAAAAGUAGAAGGCGCUGGCG [salish99-ex3-55] | 81.4 | 34.1
AGCUAGCUAGGAUAUACGAACAUGUCAAAAGACGUGAAGGGACAUGAGGAUCACCCAUGUAGAAGGAGCUAGCA [JL 74% mod 6] | 121 | 28.7
